Test results published in PMC10889306, “ApoE Isoforms Inhibit Amyloid Aggregation of Proinflammatory Protein S100A9” (International Journal of Molecular Sciences, 2024).
Where “and” joins values, the source holds several entries; their conditions need not be identical. Identical values can stand only once.

How the values were obtained:
[1] = target: T1, ApoE3 (lipid-free) (human, UniProt P02649 19-317); assay: cross-linking; native proteins, 4 uM S100A9 and 4 uM ApoE isoform (1:1), preincubated at 4 C overnight; glutaraldehyde at 10- and 100-fold molar excess, 30 min at 4 C, quenched with Tris; SDS-PAGE and Western blot with anti-S100A9 polyclonal antibodies; conditions: both partners purified
T1 construct: Apolipoprotein E, isoform ApoE3 (Cys112/Arg158), human; printed as a 299-residue lipoprotein; the methods call the ApoE isoforms full-length; PDB 2L7B (NMR structure of full-length ApoE3) was used for the modelling only; also called Apolipoprotein E3; lipid-free ApoE3; source: bought: AlexoTech AB (recombinant), then size-exclusion chromatography (Superdex 200)
T1 sequence (P02649 19-317): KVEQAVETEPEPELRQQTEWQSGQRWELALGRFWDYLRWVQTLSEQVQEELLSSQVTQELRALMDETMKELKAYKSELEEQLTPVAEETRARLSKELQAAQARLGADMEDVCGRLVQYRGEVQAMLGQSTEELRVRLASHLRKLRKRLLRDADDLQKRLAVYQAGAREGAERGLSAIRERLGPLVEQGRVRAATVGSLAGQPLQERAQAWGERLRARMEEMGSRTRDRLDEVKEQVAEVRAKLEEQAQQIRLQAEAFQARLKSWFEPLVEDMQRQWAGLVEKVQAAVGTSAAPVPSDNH

[2] = target: T2, ApoE4 (lipid-free) (human, UniProt P02649 19-317, Cys112 to Arg112); assay: as above; conditions: both partners purified
T2 construct: Apolipoprotein E, isoform ApoE4 (Arg112/Arg158), human; printed as a 299-residue lipoprotein; the methods call the ApoE isoforms full-length; Natural allele APOE e4; differs from ApoE3 only at position 112; also called Apolipoprotein E4; lipid-free ApoE4; source: bought: AlexoTech AB (recombinant), then size-exclusion chromatography (Superdex 200)
T2 sequence (P02649 other isoform, or with tags, fused parts or gaps Cys112 to Arg112 | Cys112 to Arg112): as the sequence (P02649 19-317) above, with C112R counted along it

[3] = target: T1, ApoE3 (lipid-free); assay: SDS-stable complex by SDS-PAGE and Western blot; 50 uM S100A9 with 2 uM lipid-free or lipidated ApoE isoform, PBS, 42 C, 70 h, non-stirring; reducing Laemmli buffer, 4-20% gel; Coomassie and Western blot with anti-S100A9 polyclonal antibody (Invitrogen); conditions: both partners purified
[4] = target: T3, ApoE3-DOPC (lipidated ApoE3) (human, UniProt P02649 19-317); assay: as above; conditions: both partners purified
T3 construct: Apolipoprotein E, isoform ApoE3 (Cys112/Arg158), human; printed as a 299-residue lipoprotein; 'Lipidated full-length ApoE isoforms'; also called DOPC-ApoE3; source: bought: AlexoTech AB (recombinant)
T3 sequence (P02649 19-317): as the sequence (P02649 19-317) above

[5] = target: T4, ApoE4-DOPC (lipidated ApoE4) (human, UniProt P02649 19-317, Cys112 to Arg112); assay: as above; conditions: both partners purified
T4 construct: Apolipoprotein E, isoform ApoE4 (Arg112/Arg158), human; printed as a 299-residue lipoprotein; 'Lipidated full-length ApoE isoforms'; source: bought: AlexoTech AB (recombinant)
T4 sequence (P02649 other isoform, or with tags, fused parts or gaps Cys112 to Arg112 | Cys112 to Arg112): as the sequence (P02649 19-317) above, with C112R counted along it

[6] = target: the molecule itself; assay: as above
[7] = target: the molecule itself; assay: SDS-stable complex by Western blot of pellet and SEC fractions; 100 uM S100A9 with 5 uM lipid-free ApoE4, PBS, 42 C, 70 h (methods: 72 h); centrifuged 14,000 rpm 15 min; pellet and Superdex 200 peaks of the supernatant on SDS-PAGE and Western blot with anti-S100A9 polyclonal antibodies (Santa Cruz)

- stoichiometry N [1]: 2 S100A9 per ApoE
- stoichiometry N [2]: 1 S100A9 per ApoE and 2 S100A9 per ApoE
- stoichiometry N [3]: 1 S100A9 per ApoE
- stoichiometry N [4]: 1 S100A9 per ApoE
- stoichiometry N [5]: 1 S100A9 per ApoE
B1: S100A9 (natural protein)
chain: KMSQLERNIETIINTFHQYSVKLGHPDTLNQGEFKELVRKDLQNFLKKENKNEKVIEHIMEDLDTNADKQLSFEEFIMLMARLTWASHEKMHEGDEGPGHHHKPGLGEGTP
notes: 13 kDa monomer on the gels; PDB 5I8N (S100A9 dimer, NMR) was used for the modelling only; also called native S100A9; S100A9 amyloids; source: Escherichia coli, purified as described previously [57]; Superdex 200 gel filtration for the cross-linking
- stoichiometry N [6]: 3
- stoichiometry N [7]: 2
